Data as given in US20240409645A1 (DUALYX, published 2024).
Where two headings read alike, the source gives them in different places.

Key:
[1] = biological target: T1, human IL-2 receptor (IL-2Rα/IL-2Rβ/γc) (human, UniProt P01589 22-272; P14784 27-551; P31785 23-369); experiment: cell-based or functional assay
T1 sequence 1: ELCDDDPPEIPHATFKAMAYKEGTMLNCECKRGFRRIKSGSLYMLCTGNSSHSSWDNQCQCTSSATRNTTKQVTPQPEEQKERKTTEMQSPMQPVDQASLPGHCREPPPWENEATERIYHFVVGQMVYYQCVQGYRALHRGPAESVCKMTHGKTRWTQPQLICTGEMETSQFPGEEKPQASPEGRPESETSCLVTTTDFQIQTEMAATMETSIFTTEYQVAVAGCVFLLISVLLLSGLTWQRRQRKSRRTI
T1 sequence 2: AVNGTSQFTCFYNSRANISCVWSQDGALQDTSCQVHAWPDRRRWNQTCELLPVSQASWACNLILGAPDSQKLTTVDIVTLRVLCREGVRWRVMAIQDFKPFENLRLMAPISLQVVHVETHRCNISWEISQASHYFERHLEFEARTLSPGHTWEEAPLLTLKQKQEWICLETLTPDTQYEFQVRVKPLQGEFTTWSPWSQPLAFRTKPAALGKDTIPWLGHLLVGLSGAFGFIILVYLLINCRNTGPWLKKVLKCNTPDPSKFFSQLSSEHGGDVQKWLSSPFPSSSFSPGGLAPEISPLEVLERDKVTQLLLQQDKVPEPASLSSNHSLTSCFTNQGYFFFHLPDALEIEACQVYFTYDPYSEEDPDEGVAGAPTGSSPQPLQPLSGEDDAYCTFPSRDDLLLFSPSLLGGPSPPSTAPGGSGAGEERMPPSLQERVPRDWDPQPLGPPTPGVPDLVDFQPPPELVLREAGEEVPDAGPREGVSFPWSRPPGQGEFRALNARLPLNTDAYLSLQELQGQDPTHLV
T1 sequence 3: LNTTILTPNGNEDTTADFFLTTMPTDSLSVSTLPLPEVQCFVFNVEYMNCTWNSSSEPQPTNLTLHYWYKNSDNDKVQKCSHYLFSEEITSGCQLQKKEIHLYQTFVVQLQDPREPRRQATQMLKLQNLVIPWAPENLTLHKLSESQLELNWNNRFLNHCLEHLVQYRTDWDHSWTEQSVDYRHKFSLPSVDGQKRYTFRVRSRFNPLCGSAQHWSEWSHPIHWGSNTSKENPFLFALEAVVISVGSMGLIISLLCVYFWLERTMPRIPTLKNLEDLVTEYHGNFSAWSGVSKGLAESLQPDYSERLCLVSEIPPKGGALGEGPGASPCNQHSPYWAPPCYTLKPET

[2] = biological target: T1, human IL-2 receptor (IL-2Rα/IL-2Rβ/γc); experiment: cell-based or functional assay; remark: listed apart in the source

B1: TsVHH-48 (other)
chain 1: QVQLVESGGGLVQPGGSLRLSCATSGFTFRNNFMSWVRQAPGKGLEWVSTISYGGESTTYAESVKGRFTISRDNAKNTLYLQMNNLKPEDTAVYYCAKATSYDSIRSGSRGQGTQVTVSSDKTHTCPPCPAPEAAGGPSVFLFPPKPKDTLMISRTPEVTCVVVDVSHEDPEVKFNWYVDGVEVHNAKTKPREEQYNSTYRVVSVLTVLHQDWLNGKEYKCKVSNKALGAPIEKTISKAKGQPREPQVYTLPPSRDELTKNQVSLTCLVKGFYPSDIAVEWESNGQPENNYKTTPPVLDSDGSFFLYSRLTVDKSRWQQGNVFSCSVMHEALHNHYTQKSLSLSPGK
chain 2: QVQLVESGGGLVQAGGSLTLSCAAPGRTFGTDVVGWFRQAPGKEREFVASISRSGDGIYYDDSVKGRFTISRNNAWNTVNLQMNSLKVEDTAVYYCAAGDGWSTYDYWGQGTQVTVSSGGGGSGGGGSGGGGSGSEVQLVESGGGLVQTGGSLRLSCAASGGTFSRDAMAWFRQVPGKEREFVALISWSGATTNYADSVKGRFAISRDNGKNTVYLQMNRLKPADTAIYYCAADRRPMGSRSYFEPTEYDDWGQGTQVTVSSGGGGSGGGGSGGGGSTVSSDKTHTCPPCPAPEAAGGPSVFLFPPKPKDTLMISRTPEVTCVVVDVSHEDPEVKFNWYVDGVEVHNAKTKPREEQYNSTYRVVSVLTVLHQDWLNGKEYKCKVSNKALGAPIEKTISKAKGQPREPQVYTLPPSRDELTKNQVSLTCLVKGFYPSDIAVEWESNGQPENNYKTTPPVLDSDGSFLLYSKLTVDKSRWQQGNVFSCSVMHEALHNHYTQKSLSLSPGK
- EC50 (nM) pSTAT5, NK, human PBMCs [1]: 2.59 nM
- EC50 (nM) pSTAT5, Treg, human PBMCs [1]: 0.0118 nM
- Fold Max signal (% pSTAT5+) Treg/NK [1]: 5 fold
- Max signal (% pSTAT5+), NK [1]: 20 % pSTAT5+
- Max signal (% pSTAT5+), Treg [1]: 95 % pSTAT5+
- fold EC50 NK/Treg [1]: 220 fold
- EC50 (nM) pSTAT5, NK, human PBMCs [2]: 1.14 nM
- EC50 (nM) pSTAT5, Treg, human PBMCs [2]: 0.00195 nM
- Fold Max signal (% pSTAT5+) Treg/NK [2]: 8 fold
- Max signal (% pSTAT5+), NK [2]: 8.26 % pSTAT5+
- Max signal (% pSTAT5+), Treg [2]: 64.1 % pSTAT5+
- fold EC50 NK/Treg [2]: 583 fold

B2: DC00060 (other)
chain 1: QVQLVESGGGLVQPGGSLRLSCATSGFTFRNNFMSWVRQAPGKGLEWVSTISYGGESTTYAESVKGRFTISRDNAKNTLYLQMNNLKPEDTAVYYCAKATSYDSIRSGSRGQGTQVTVSSGGGGSGGGGSGGGGSEVQLVESGGGLVQTGGSLRLSCAASGGTFSRDAMAWFRQVPGKEREFVALISWSGATTNYADSVKGRFAISRDNGKNTVYLQMNRLKPADTAIYYCAADRRPMGSRSYFEPTEYDDWGQGTQVTVSSGGGGSGGGGSGGGGSDKTHTCPPCPAPEAAGGPSVFLFPPKPKDTLMISRTPEVTCVVVDVSHEDPEVKFNWYVDGVEVHNAKTKPREEQYNSTYRVVSVLTVLHQDWLNGKEYKCKVSNKALGAPIEKTISKAKGQPREPQVYTLPPSRDELTKNQVSLTCLVKGFYPSDIAVEWESNGQPENNYKTTPPVLDSDGSFLLYSKLTVDKSRWQQGNVFSCSVMHEALHNHYTQKSLSLSPGK
chain 2: QVQLVESGGGLVQPGGSLRLSCATSGFTFRNNFMSWVRQAPGKGLEWVSTISYGGESTTYAESVKGRFTISRDNAKNTLYLQMNNLKPEDTAVYYCAKATSYDSIRSGSRGQGTQVTVSSGGGGSGGGGSGGGGSQVQLVESGGGLVQAGGSLTLSCAAPGRTFGTDVVGWFRQAPGKEREFVASISRSGDGIYYDDSVKGRFTISRNNAWNTVNLQMNSLKVEDTAVYYCAAGDGWSTYDYWGQGTQVTVSSGGGGSGGGGSGGGGSDKTHTCPPCPAPEAAGGPSVFLFPPKPKDTLMISRTPEVTCVVVDVSHEDPEVKFNWYVDGVEVHNAKTKPREEQYNSTYRVVSVLTVLHQDWLNGKEYKCKVSNKALGAPIEKTISKAKGQPREPQVYTLPPSRDELTKNQVSLTCLVKGFYPSDIAVEWESNGQPENNYKTTPPVLDSDGSFFLYSRLTVDKSRWQQGNVFSCSVMHEALHNHYTQKSLSLSPGK
- EC50 (nM) pSTAT5, NK, human PBMCs [1]: 0.645 nM
- EC50 (nM) pSTAT5, Treg, human PBMCs [1]: 0.00334 nM
- Fold Max signal (% pSTAT5+) Treg/NK [1]: 7 fold
- Max signal (% pSTAT5+), NK [1]: 8 % pSTAT5+
- Max signal (% pSTAT5+), Treg [1]: 56 % pSTAT5+
- fold EC50 NK/Treg [1]: 193 fold
- EC50 (nM) pSTAT5, NK, human PBMCs [2]: 0.769 nM
- EC50 (nM) pSTAT5, Treg, human PBMCs [2]: 0.00215 nM
- Fold Max signal (% pSTAT5+) Treg/NK [2]: 8 fold
- Max signal (% pSTAT5+), NK [2]: 2.49 % pSTAT5+
- Max signal (% pSTAT5+), Treg [2]: 19.8 % pSTAT5+
- fold EC50 NK/Treg [2]: 358 fold

B3: DC00093 (other)
chain 1: QLQLVESGGGLVQAGDSLRLSCAASGFNFGWHAMGWFRQAPGKEREFVATITWTGRDTYYADSVRGRFTISKDNAKDTLFLQMNSLRPDDTGVYYCAKARERATWAYSEDDCDYWGQGTQVTVSSDKTHTCPPCPAPEAAGGPSVFLFPPKPKDTLMISRTPEVTCVVVDVSHEDPEVKFNWYVDGVEVHNAKTKPREEQYNSTYRVVSVLTVLHQDWLNGKEYKCKVSNKALGAPIEKTISKAKGQPREPQVYTLPPSRDELTKNQVSLTCLVKGFYPSDIAVEWESNGQPENNYKTTPPVLDSDGSFLLYSKLTVDKSRWQQGNVFSCSVMHEALHNHYTQKSLSLSPGK
chain 2: QVQLVESGGGLVQAGGSLTLSCAAPGRTFGTDVVGWFRQAPGKEREFVASISRSGDGIYYDDSVKGRFTISRNNAWNTVNLQMNSLKVEDTAVYYCAAGDGWSTYDYWGQGTQVTVSSGGGGSGGGGSGGGGSEVQLVESGGGLVQTGGSLRLSCAASGGTFSRDAMAWFRQVPGKEREFVALISWSGATTNYADSVKGRFAISRDNGKNTVYLQMNRLKPADTAIYYCAADRRPMGSRSYFEPTEYDDWGQGTQVTVSSGGGGSGGGGSGGGGSQVQLVESGGGLVQPGGSLRLSCATSGFTFRNNFMSWVRQAPGKGLEWVSTISYGGESTTYAESVKGRFTISRDNAKNTLYLQMNNLKPEDTAVYYCAKATSYDSIRSGSRGQGTQVTVSSDKTHTCPPCPAPEAAGGPSVFLFPPKPKDTLMISRTPEVTCVVVDVSHEDPEVKFNWYVDGVEVHNAKTKPREEQYNSTYRVVSVLTVLHQDWLNGKEYKCKVSNKALGAPIEKTISKAKGQPREPQVYTLPPSRDELTKNQVSLTCLVKGFYPSDIAVEWESNGQPENNYKTTPPVLDSDGSFFLYSRLTVDKSRWQQGNVFSCSVMHEALHNHYTQKSLSLSPGK
- EC50 (nM) pSTAT5, NK, human PBMCs [2]: 0.0752 nM
- EC50 (nM) pSTAT5, Treg, human PBMCs [2]: 0.735 nM
- Fold Max signal (% pSTAT5+) Treg/NK [2]: 6 fold
- Max signal (% pSTAT5+), NK [2]: 11.4 % pSTAT5+
- Max signal (% pSTAT5+), Treg [2]: 66.7 % pSTAT5+
